Tests used:
[1] = biological target: Islet amyloid polypeptide (IAPP), human (human) (UniProt P10997); assay: FRET or BRET; diluted-FRET inside live INS-1 cells; 10 uM IAPP, no ADM-116 (toxic condition); donor:acceptor:unlabelled 1:1:500; 24 h
[2] = biological target: Islet amyloid polypeptide (IAPP), human (human) (UniProt P10997); assay: FRET or BRET; diluted-FRET by confocal imaging on GPMVs from INS-1 cells; 50 uM IAPP, 5 uM phospholipid, no ADM-116 (10:1:0); donor:acceptor:unlabelled 1:1:500; first 34 min (small sieve size leakage)
[3] = biological target: Islet amyloid polypeptide (IAPP), human (human) (UniProt P10997); assay: FRET or BRET; diluted-FRET inside live INS-1 cells; 10 uM IAPP in the medium, equimolar ADM-116 added 3 h later (rescued condition); donor:acceptor:unlabelled 1:1:100; 24 h and 48 h
[4] = biological target: Islet amyloid polypeptide (IAPP), human (human) (UniProt P10997); assay: FRET or BRET; diluted-FRET inside live INS-1 cells; 10 uM IAPP, no ADM-116 (toxic condition); donor:acceptor:unlabelled 1:1:500; 48 h

FRETeff (peak 1 of 4, first 34 min) [2]: 0.21
FRETeff (peak 2 of 4, first 34 min) [2]: 0.36
FRETeff (peak 3 of 4, first 34 min) [2]: 0.41
FRETeff (peak 4 of 4, first 34 min) [2]: 0.58
FRETeff (single peak, rescued with ADM-116) [3]: 0.6
Substance: Islet amyloid polypeptide (IAPP), human (from UniProt P10997 34-70)
FRETeff (peak at 24 h) [1]: 0.36
FRETeff (peak at 48 h) [4]: 0.62

Reference: paper PMC5882805
